Non-standard residues stand in square brackets, D forms with d. No end group written: not given here. *: point of attachment. Morpholinocarbonyl = O=C(N1CCOCC1)*; Amidino = amidino group, N=C(N)*; hArg = N=C(N)NCCCC[C@H](N)C(=O)O; tBuAla = CC(C)(C)C[C@H](N)C(=O)O; Cha = N[C@@H](CC1CCCCC1)C(=O)O; 4Amb = NCc1ccc(C(=O)O)cc1; Orn = NCCC[C@H](N)C(=O)O; Ac3c = NC1(C(=O)O)CC1; Aib = CC(C)(N)C(=O)O; Carbamoyl = NC(=O)*
T1: human Y2 receptor (human, UniProt P49146 1-381)
T1 sequence (looked up): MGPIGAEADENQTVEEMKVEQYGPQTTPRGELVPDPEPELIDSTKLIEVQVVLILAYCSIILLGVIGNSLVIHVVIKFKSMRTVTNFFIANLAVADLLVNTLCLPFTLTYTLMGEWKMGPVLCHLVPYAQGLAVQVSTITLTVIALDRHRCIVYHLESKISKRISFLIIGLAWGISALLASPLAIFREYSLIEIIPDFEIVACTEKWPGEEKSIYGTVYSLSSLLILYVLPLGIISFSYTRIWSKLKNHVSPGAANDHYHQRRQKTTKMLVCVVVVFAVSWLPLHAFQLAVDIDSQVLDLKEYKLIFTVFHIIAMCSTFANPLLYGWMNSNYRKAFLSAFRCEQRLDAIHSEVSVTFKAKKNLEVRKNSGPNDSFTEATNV

B1: Ac-[D-Tyr21, D-Pro24, Cha27,28,36, Aib31]-PYY(21-36) (peptide)
peptide: Ac-[dY]AS[dP]RH[Cha][Cha]NL[Aib]TRQR[Cha]-NH2
SMILES: CC(=O)N[C@H](Cc1ccc(O)cc1)C(=O)N[C@@H](C)C(=O)N[C@@H](CO)C(=O)N1CCC[C@@H]1C(=O)N[C@@H](CCCNC(=N)N)C(=O)N[C@@H](Cc1c[nH]cn1)C(=O)N[C@@H](CC1CCCCC1)C(=O)N[C@@H](CC1CCCCC1)C(=O)N[C@@H](CC(N)=O)C(=O)N[C@@H](CC(C)C)C(=O)NC(C)(C)C(=O)N[C@H](C(=O)N[C@@H](CCCNC(=N)N)C(=O)N[C@@H](CCC(N)=O)C(=O)N[C@@H](CCCNC(=N)N)C(=O)N[C@@H](CC1CCCCC1)C(N)=O)[C@@H](C)O
notes: also called compound No. 121
B2: 4-Aminomethylbenzoyl-[Orn25, Ala26, Ile28,31]-PYY(25-36) (peptide)
peptide: [4Amb][Orn]AYINLITRQRY-NH2
modifications: N-terminus assumed
SMILES: CC[C@H](C)[C@H](NC(=O)[C@H](Cc1ccc(O)cc1)NC(=O)[C@H](C)NC(=O)[C@H](CCCN)NC(=O)c1ccc(CN)cc1)C(=O)N[C@@H](CC(N)=O)C(=O)N[C@@H](CC(C)C)C(=O)N[C@H](C(=O)N[C@H](C(=O)N[C@@H](CCCNC(=N)N)C(=O)N[C@@H](CCC(N)=O)C(=O)N[C@@H](CCCNC(=N)N)C(=O)N[C@@H](Cc1ccc(O)cc1)C(N)=O)[C@@H](C)O)[C@@H](C)CC
notes: also called compound No. 10
B3: 4-Aminomethylbenzoyl-[Ala26, Ile28,31, Har33]-PYY(25-36) (peptide)
peptide: [4Amb]RAYINLIT[hArg]QRY-NH2
modifications: N-terminus assumed
SMILES: CC[C@H](C)[C@H](NC(=O)[C@H](Cc1ccc(O)cc1)NC(=O)[C@H](C)NC(=O)[C@H](CCCNC(=N)N)NC(=O)c1ccc(CN)cc1)C(=O)N[C@@H](CC(N)=O)C(=O)N[C@@H](CC(C)C)C(=O)N[C@H](C(=O)N[C@H](C(=O)N[C@@H](CCCCNC(=N)N)C(=O)N[C@@H](CCC(N)=O)C(=O)N[C@@H](CCCNC(=N)N)C(=O)N[C@@H](Cc1ccc(O)cc1)C(N)=O)[C@@H](C)O)[C@@H](C)CC
notes: also called compound No. 11
B4: Amidino-[D-Pro24, Cha27,36, Leu(Me)28, Lys30, Aib31]-PYY(23-36) (peptide)
peptide: Amidino-S[dP]RH[Cha][tBuAla]NK[Aib]TRQR[Cha]-NH2
SMILES: C[C@@H](O)[C@H](NC(=O)C(C)(C)NC(=O)[C@H](CCCCN)NC(=O)[C@H](CC(N)=O)NC(=O)[C@H](CC(C)(C)C)NC(=O)[C@H](CC1CCCCC1)NC(=O)[C@H](Cc1c[nH]cn1)NC(=O)[C@H](CCCNC(=N)N)NC(=O)[C@H]1CCCN1C(=O)[C@H](CO)NC(=N)N)C(=O)N[C@@H](CCCNC(=N)N)C(=O)N[C@@H](CCC(N)=O)C(=O)N[C@@H](CCCNC(=N)N)C(=O)N[C@@H](CC1CCCCC1)C(N)=O
notes: also called compound No. 186
B5: Morpholinocarbonyl-[D-Pro24, Cha27,36, Leu(Me)28, Lys30, Aib31]-PYY(23-36) (peptide)
peptide: Morpholinocarbonyl-S[dP]RH[Cha][tBuAla]NK[Aib]TRQR[Cha]-NH2
SMILES: C[C@@H](O)[C@H](NC(=O)C(C)(C)NC(=O)[C@H](CCCCN)NC(=O)[C@H](CC(N)=O)NC(=O)[C@H](CC(C)(C)C)NC(=O)[C@H](CC1CCCCC1)NC(=O)[C@H](Cc1c[nH]cn1)NC(=O)[C@H](CCCNC(=N)N)NC(=O)[C@H]1CCCN1C(=O)[C@H](CO)NC(=O)N1CCOCC1)C(=O)N[C@@H](CCCNC(=N)N)C(=O)N[C@@H](CCC(N)=O)C(=O)N[C@@H](CCCNC(=N)N)C(=O)N[C@@H](CC1CCCCC1)C(N)=O
notes: also called compound No. 187
B6: Amidino-[Glu23, D-Pro24, Cha27,28,36, Lys30, Aib31]-PYY(23-36) (peptide)
peptide: Amidino-E[dP]RH[Cha][Cha]NK[Aib]TRQR[Cha]-NH2
SMILES: C[C@@H](O)[C@H](NC(=O)C(C)(C)NC(=O)[C@H](CCCCN)NC(=O)[C@H](CC(N)=O)NC(=O)[C@H](CC1CCCCC1)NC(=O)[C@H](CC1CCCCC1)NC(=O)[C@H](Cc1c[nH]cn1)NC(=O)[C@H](CCCNC(=N)N)NC(=O)[C@H]1CCCN1C(=O)[C@H](CCC(=O)O)NC(=N)N)C(=O)N[C@@H](CCCNC(=N)N)C(=O)N[C@@H](CCC(N)=O)C(=O)N[C@@H](CCCNC(=N)N)C(=O)N[C@@H](CC1CCCCC1)C(N)=O
notes: also called compound No. 190
B7: Carbamoyl-[Asp23, D-Pro24, Cha27,28,36, Aib31]-PYY(23-36) (peptide)
peptide: Carbamoyl-D[dP]RH[Cha][Cha]NL[Aib]TRQR[Cha]-NH2
SMILES: CC(C)C[C@H](NC(=O)[C@H](CC(N)=O)NC(=O)[C@H](CC1CCCCC1)NC(=O)[C@H](CC1CCCCC1)NC(=O)[C@H](Cc1c[nH]cn1)NC(=O)[C@H](CCCNC(=N)N)NC(=O)[C@H]1CCCN1C(=O)[C@H](CC(=O)O)NC(N)=O)C(=O)NC(C)(C)C(=O)N[C@H](C(=O)N[C@@H](CCCNC(=N)N)C(=O)N[C@@H](CCC(N)=O)C(=O)N[C@@H](CCCNC(=N)N)C(=O)N[C@@H](CC1CCCCC1)C(N)=O)[C@@H](C)O
notes: also called compound No. 161; ureido-[Asp23,D-Pro24,Cha27,28,36,Aib31]-PYY(23-36)
B8: Morpholinocarbonyl-[Asp23, D-Pro24, Cha27,28,36, Aib31]-PYY(23-36) (peptide)
peptide: Morpholinocarbonyl-D[dP]RH[Cha][Cha]NL[Aib]TRQR[Cha]-NH2
SMILES: CC(C)C[C@H](NC(=O)[C@H](CC(N)=O)NC(=O)[C@H](CC1CCCCC1)NC(=O)[C@H](CC1CCCCC1)NC(=O)[C@H](Cc1c[nH]cn1)NC(=O)[C@H](CCCNC(=N)N)NC(=O)[C@H]1CCCN1C(=O)[C@H](CC(=O)O)NC(=O)N1CCOCC1)C(=O)NC(C)(C)C(=O)N[C@H](C(=O)N[C@@H](CCCNC(=N)N)C(=O)N[C@@H](CCC(N)=O)C(=O)N[C@@H](CCCNC(=N)N)C(=O)N[C@@H](CC1CCCCC1)C(N)=O)[C@@H](C)O
notes: also called compound No. 173
B9: Morpholinocarbonyl-[Glu23, D-Pro24, Cha27,28,36, Aib31]-PYY(23-36) (peptide)
peptide: Morpholinocarbonyl-E[dP]RH[Cha][Cha]NL[Aib]TRQR[Cha]-NH2
SMILES: CC(C)C[C@H](NC(=O)[C@H](CC(N)=O)NC(=O)[C@H](CC1CCCCC1)NC(=O)[C@H](CC1CCCCC1)NC(=O)[C@H](Cc1c[nH]cn1)NC(=O)[C@H](CCCNC(=N)N)NC(=O)[C@H]1CCCN1C(=O)[C@H](CCC(=O)O)NC(=O)N1CCOCC1)C(=O)NC(C)(C)C(=O)N[C@H](C(=O)N[C@@H](CCCNC(=N)N)C(=O)N[C@@H](CCC(N)=O)C(=O)N[C@@H](CCCNC(=N)N)C(=O)N[C@@H](CC1CCCCC1)C(N)=O)[C@@H](C)O
notes: also called compound No. 174
B10: Morpholinocarbonyl-[Glu23, D-Pro24, Cha27,28,36, Lys30, Aib31]-PYY(23-36) (peptide)
peptide: Morpholinocarbonyl-E[dP]RH[Cha][Cha]NK[Aib]TRQR[Cha]-NH2
SMILES: C[C@@H](O)[C@H](NC(=O)C(C)(C)NC(=O)[C@H](CCCCN)NC(=O)[C@H](CC(N)=O)NC(=O)[C@H](CC1CCCCC1)NC(=O)[C@H](CC1CCCCC1)NC(=O)[C@H](Cc1c[nH]cn1)NC(=O)[C@H](CCCNC(=N)N)NC(=O)[C@H]1CCCN1C(=O)[C@H](CCC(=O)O)NC(=O)N1CCOCC1)C(=O)N[C@@H](CCCNC(=N)N)C(=O)N[C@@H](CCC(N)=O)C(=O)N[C@@H](CCCNC(=N)N)C(=O)N[C@@H](CC1CCCCC1)C(N)=O
notes: also called compound No. 191
B11: Ac-[Gly23-ψ[(E)-CH═CH]-Leu24, Cha27,28,36, Aib31]-PYY(23-36) (peptide)
peptide: Ac-GLRH[Cha][Cha]NL[Aib]TRQR[Cha]-NH2
modifications: also: Gly1-Leu2 amide bond replaced by (E)-CH=CH alkene
notes: -CONH- bond between Gly23 and Leu24 is substituted by (E) type alkene; also called compound No. 122
B12: Ac-[D-Pro24, Cha27,28,36, Acpc31]-PYY(23-36) (peptide)
peptide: Ac-S[dP]RH[Cha][Cha]NL[Ac3c]TRQR[Cha]-NH2
SMILES: CC(=O)N[C@@H](CO)C(=O)N1CCC[C@@H]1C(=O)N[C@@H](CCCNC(=N)N)C(=O)N[C@@H](Cc1c[nH]cn1)C(=O)N[C@@H](CC1CCCCC1)C(=O)N[C@@H](CC1CCCCC1)C(=O)N[C@@H](CC(N)=O)C(=O)N[C@@H](CC(C)C)C(=O)NC1(C(=O)N[C@H](C(=O)N[C@@H](CCCNC(=N)N)C(=O)N[C@@H](CCC(N)=O)C(=O)N[C@@H](CCCNC(=N)N)C(=O)N[C@@H](CC2CCCCC2)C(N)=O)[C@@H](C)O)CC1
notes: also called compound No. 131

Tests used:
human Y2 receptor [1] = biological target: T1, human Y2 receptor; assay: cell-based or functional assay
human Y2 receptor [2] = biological target: T1, human Y2 receptor; assay: RBA: [125I]-PYY displacement, hY2R/CHO membranes
Description: After incubation at room temperature for 60 minutes, the mixture was filtered through the cell harvester FilterMate (PerkinElmer) using UniFilter-96 GF/C treated with polyethylenimine (PEI) solution (20 mM Tris, 0.3% PEI, pH 7.4), and the filter was washed 3 times with a filtering buffer (50 mM Tris, 5 mM MgCl₂, 150 mM NaCl, 0.03% NaN₃, 0.05% CHAPS, pH 7.4). Thereafter, UniFilter-96 GF/C was dried in a mechanical drier for 1 hour, 15 μl of the liquid scintillator MicroScint O (PerkinElmer) was added to each well, and a measurement was taken using TopCount (PerkinElmer). The data obtained were analyzed using Prism to calculate the IC₅₀ value.

Row | Binder | GBA EC50 Ratio (vs PYY(3-36)), [35S]GTPγS (human Y2 receptor [1]) | IC50 Ratio (vs PYY(3-36)) (human Y2 receptor [2])
1 | B1 | 1.3 ratio | 1.2 ratio
2 | B2 | 18 ratio | 39 ratio
3 | B3 | 63 ratio | 260 ratio
4 | B4 | 0.69 ratio | 0.43 ratio
5 | B5 | 0.84 ratio | 0.66 ratio
6 | B6 | 0.77 ratio | 0.66 ratio
7 | B7 | 2.4 ratio | 4.1 ratio
8 | B8 | 1.4 ratio | 2.9 ratio
9 | B9 | 1 ratio | 1.9 ratio
10 | B10 | 1.4 ratio | 1.4 ratio
11 | B11 | 14 ratio | 17 ratio
12 | B12 | 3.6 ratio | 7 ratio

Source: US20120172293A1 (Takeda / Millennium, published 2012)
